In US20230242673A1 one finds LDL uptake by HepG2 cells, fluorescence value of LDL BODIPY (485 Ex/535 Em) data, which are given here for one substance.

The experiment concerns the target LDLR expressed in HepG2 cells (UniProt P01130). Put plainly: cell-based or functional assay.

Sequence of LDLR expressed in HepG2 cells (P01130 22-860 limits assumed): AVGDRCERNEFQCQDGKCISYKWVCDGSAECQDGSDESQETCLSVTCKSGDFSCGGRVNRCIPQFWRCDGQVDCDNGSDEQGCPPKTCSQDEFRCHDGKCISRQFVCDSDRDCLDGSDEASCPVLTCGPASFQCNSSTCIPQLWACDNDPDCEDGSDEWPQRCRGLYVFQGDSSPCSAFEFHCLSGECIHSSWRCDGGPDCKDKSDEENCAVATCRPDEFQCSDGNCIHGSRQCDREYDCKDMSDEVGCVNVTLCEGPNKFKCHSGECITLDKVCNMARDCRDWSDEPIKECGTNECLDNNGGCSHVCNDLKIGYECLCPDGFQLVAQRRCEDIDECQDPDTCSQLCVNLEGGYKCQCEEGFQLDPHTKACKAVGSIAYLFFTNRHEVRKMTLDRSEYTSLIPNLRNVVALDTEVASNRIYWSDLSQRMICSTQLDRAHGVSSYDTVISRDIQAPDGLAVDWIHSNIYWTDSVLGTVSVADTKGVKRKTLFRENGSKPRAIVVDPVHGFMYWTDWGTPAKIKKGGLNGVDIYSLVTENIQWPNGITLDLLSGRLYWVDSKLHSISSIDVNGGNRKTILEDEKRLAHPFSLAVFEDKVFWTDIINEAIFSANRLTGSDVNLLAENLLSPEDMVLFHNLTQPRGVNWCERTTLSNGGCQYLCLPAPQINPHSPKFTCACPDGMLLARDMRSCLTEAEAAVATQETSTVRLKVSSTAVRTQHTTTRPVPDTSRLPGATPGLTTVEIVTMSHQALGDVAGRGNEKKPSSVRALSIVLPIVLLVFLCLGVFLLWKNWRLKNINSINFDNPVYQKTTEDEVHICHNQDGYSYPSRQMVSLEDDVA

In the case of “PCSK9 Ag (human PCSK9 protein, Acro Cat No: PC9-H5223) (from UniProt Q8NBP7 31-692)”, the LDL uptake by HepG2 cells, fluorescence value of LDL BODIPY (485 Ex/535 Em) was 80.
